Results taken from US20240117035A1.

Key:
[1] = target: human CLDN18.2 on cells (human) (UniProt P56856); assay: flow cytometry on hCLDN18.2-expressing HEK293 cells
[2] = target: human CLDN18.2 on cells (human) (UniProt P56856); assay: flow cytometry on SNU601 cells

B1: m-anti-human CLDN18.2-13 monoclonal antibody (antibody, mouse IgG2a, kappa, V domains shown)
VH: QLQLQQSGTELVRPGSSVKISCKASGYAFSNYWMNWVKQRPGQGLEWIGQIYPGNGDTKYNGNFKGKATLTADKSSSTAYMQLSSLTSEDSADYFCARYYRGNCFDYWGQGTTLTVSS
VL: DIVLTQSPSSLTVTAGEKVTMSCKSSQSLLNSGNQKNYLTWYQQKPGQPPKLLIYWASTRDSGVPARFTGSGSGTDFTLTINSVQAEDLAVYYCQNAYTYPLTFGAGTKLEIKR
IC50 [1]: 0.701 µg/mL | IC50 [2]: 0.811 µg/mL
